Assay results: IntAct's records for PubMed 21946560

B1: DNA replication regulator DPB11 (Saccharomyces cerevisiae), P47027 (parent)
chain: MKPFQGITFCPTAINNEILAKKISKKIIKLGGIFSKDLTRQVNVLVVGSTTNTNKFKFAVKHRFDIIFIDIQAIDDIYQLWLSGENILPDSNTATMTGSTYEMLKILYRRFSFKYLHNFNIFIGRITDTNITSIDSLVRSIKKLGCSSYNYQNFVIKDTSSHNDDDDQGQNGQISIFVTDTLLGARVNAAIEQNIPIVHFKWILDCQKRSALLPYDPYYLLPNIKDLPYDSIGSNSCDCWDKINTTFPTNIDAQSSLQRQQSSSTLTPSLPKTSSLLNKFKPKGEKIWDKAMSLQQHSKTNFSVLGQSPLSINNKQEDLSDNSTLIFKNCAFIIHHIFPGNHRSILTKIVVQNGGKIETSYLSGIYDHSYYIIPSNKALDSFNDLPEIIDDNDGIVTEFFIERCLYYQKLLHPIDLWSKPFLSTIEFQVSSSSKLLHHEFSSSPFLNVTITGFSGVELLHLTKVLNLLKPMGINYVEYLNKSTDILLINLAALPSIPKTHPLWSNEFSDLFTQFCINNNNDDPGDNNRKDFQNNSILRNSMKRKIEYIKKFHSIPVVTPAFIFKLLSAASGENNEIFLNNIKWCIICPRGHKDDFKCKIKKPYYTSISSEKKYQNNDPKIDKTILLKRNNSSLSEHSMKDTKNELLQKIRETDSGRKKRSVSSSIMDVSSERQMPDTKRIKLESLPKNFVPKQIKRTTSWGTIMSENVPTEQPTAISNPEEIPRTEEVSHTQVTYGSIQDKKRTASLEKPMRRQTRNQTKELDS
partner: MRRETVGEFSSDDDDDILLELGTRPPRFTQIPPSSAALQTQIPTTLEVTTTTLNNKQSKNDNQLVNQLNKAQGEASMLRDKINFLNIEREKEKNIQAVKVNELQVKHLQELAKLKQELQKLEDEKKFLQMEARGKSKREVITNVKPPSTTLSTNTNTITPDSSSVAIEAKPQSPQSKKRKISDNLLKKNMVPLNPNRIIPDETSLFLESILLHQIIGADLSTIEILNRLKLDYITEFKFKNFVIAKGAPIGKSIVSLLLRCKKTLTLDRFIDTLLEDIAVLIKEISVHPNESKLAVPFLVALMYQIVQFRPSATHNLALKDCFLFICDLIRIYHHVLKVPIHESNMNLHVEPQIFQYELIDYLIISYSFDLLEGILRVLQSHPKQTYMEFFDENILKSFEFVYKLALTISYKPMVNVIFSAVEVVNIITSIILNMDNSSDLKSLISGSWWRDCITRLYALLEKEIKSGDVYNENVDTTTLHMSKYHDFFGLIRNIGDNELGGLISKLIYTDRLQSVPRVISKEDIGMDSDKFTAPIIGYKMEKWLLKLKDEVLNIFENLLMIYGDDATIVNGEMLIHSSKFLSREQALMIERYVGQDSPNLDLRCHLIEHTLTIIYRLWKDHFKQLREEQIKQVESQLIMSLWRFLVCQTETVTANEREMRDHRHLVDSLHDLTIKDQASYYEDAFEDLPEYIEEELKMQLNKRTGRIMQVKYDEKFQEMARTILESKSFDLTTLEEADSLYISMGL
B2: DNA repair protein RAD9 (Saccharomyces cerevisiae), P14737 (parent)
chain: MSGQLVQWKSSPDRVTQSAIKEALHSPLADGDMNEMNVPVDPLENKVNSTNIIEGSPKANPNPVKFMNTSEIFQKSLGLLDESPRHDDELNIEVGDNDRPNANILHNERTPDLDRIANFFKSNRTPGKENLLTKYQSSDLEDTPLMLRKKMTFQTPTDPLEQKTFKKLKSDTGFCYYGEQNDGEENASLEVTEADATFVQMAERSADNYDCALEGIVTPKRYKDELSKSGGMQDERVQKTQIMISAESPNSISSYDKNKITGNGRTTRNVNKVFNNNEDNIGAIEEKNPVKKKSENYSSDDLRERNNQIIQSNESEEINELEKNLNVSGRENDVNNLDIDINSAVSGTPSRNNAEEEMYSSESVNNREPSKKWIFRYSKDKTENNSNRSTQIVNNPRTQEMPLDSISIDTQPLSKSFNTETNNELETQIIVSSLSQGISAQKGPVFHSTGQTEEIKTQIINSPEQNALNATFETPVTLSRINFEPILEVPETSSPSKNTMSKPSNSSPIPKEKDTFNIHEREVETNNVFSNDIQNSSNAATRDDIIIAGSSDFNEQKEITDRIYLQLSGKQISDSGSDETERMSPNELDTKKESTIMSEVELTQELPEVEEQQDLQTSPKKLVVEEETLMEIKKSKGNSLQLHDDNKECNSDKQDGTESLDVALIEHESKGQSSELQKNLMQLFPSESQEIIQNRRTIKRRQKDTIEIGEEEENRSTKTSPTKHLKRNSDLDAASIKREPSCSITIQTGETGSGKDSKEQSYVFPEGIRTADNSFLSKDDIIFGNAVWCQYTWNYKFYPGILLEVDTNQDGCWIYFETGRSLTKDEDIYYLDIRIGDAVTFDGNEYVVVGLECRSHDLNIIRCIRGYDTVHLKKKNASGLLGKRTLIKALSSISLDLSEWAKRAKIILEDNEKNKGDAYRYLRHPIRGRKSMTNVLSPKKHTDDEKDINTHTEVYNNEIESSSEKKEIVKKDSRDALAEHAGAPSLLFSSGEIRTGNVFDKCIFVLTSLFENREELRQTIESQGGTVIESGFSTLFNFTHPLAKSLVNKGNTDNIRELALKLAWKPHSLFADCRFACLITKRHLRSLKYLETLALGWPTLHWKFISACIEKKRIVPHLIYQYLLPSGESFRLSLDSPSKGGIIKSNNIFSFYTQFLRGSNLRDQICGVKKMLNDYIVIVWGRSELDSFVKFAFACLSAGRMLTIDLPNIDVDDTEPLLNALDSLVPRIGSELSNRKLKFLIYANENNGKSQMKLLERLRSQISLKFKKFNYIFHTESKEWLIQTIINEDTGFHDDITDNDIYNTISEVR
partner: B1 chain

Variants of: B1
Conditions: with lcd1_yeast LCD1, Q04377

For W700A, which “effect of a mutation on the interaction” value is on record?
The value was “disrupting interaction”.

For G701A, which “effect of a mutation on the interaction” value is on record?
Its value is “disrupting interaction”.

Variants of: B1
Conditions: with lcd1_yeast LCD1, Q04377
Remark: another data set of the same source

Which “effect of a mutation on the interaction” value does the source give for G701A here?
Its value is “decreasing interaction”.

Variants of: B1
Conditions: with lcd1_yeast LCD1, Q04377
Remark: another data set of the same source

Which “effect of a mutation on the interaction” value does the source give for Y735A here?
Its value is “decreasing interaction”.

Which “effect of a mutation on the interaction” value does the source give for G736A here?
The value was “decreasing interaction”.

Variants of: B2
Conditions: with dpb11_yeast DPB11, P47027

Which “effect of a mutation on the interaction” value does the source give for S462A here?
Its value is “disrupting interaction”.

T474A was tested. Which “effect of a mutation on the interaction” value did it give?
Its value is “disrupting interaction”.

Variants of: B2
Conditions: with dpb11_yeast DPB11, P47027
Remark: another data set of the same source

T474A was tested. Which “effect of a mutation on the interaction” value did it give?
The value was “decreasing interaction”.
